{
  "source": "patent US11090322B2",
  "about": "“Anthracycline disulfide intermediates, antibody-drug conjugates and methods” (priority 2014, dated 2021)",
  "key": {"tumor models": {"tested_on": "tumor models", "conditions": "cited from earlier work"}, "[1]": {"conditions": "cited from earlier work"}, "SK-BR-3 cells": {"tested_on": "SK-BR-3 cells", "test": "In vitro cell proliferation assay (CellTiter-Glo), SK-BR-3 cell viability at 5 days", "format": "cell-based", "conditions": "SK-BR-3, 5 days, concentrations in μg/ml; FIG. 1 and FIG. 2", "method": "Generally, the cytotoxic or cytostatic activity of an antibody-drug conjugate (ADC) is measured by: exposing mammalian cells having receptor proteins, e.g. HER2, to the antibody of the ADC in a cell culture medium; culturing the cells for a period from about 6 hours to about 5 days; and measuring cell viability. Cell-based in vitro assays were used to measure viability (proliferation), cytotoxicity, and induction of apoptosis (caspase activation) of the ADC of the invention.\nThe CellTiter-Glo® Luminescent Cell Viability Assay is a commercially available (Promega Corp., Madison, Wis.), homogeneous assay method based on the recombinant expression of Coleoptera luciferase (U.S. Pat. Nos. 5,583,024; 5,674,713; 5,700,670). This cell proliferation assay determines the number of viable cells in culture based on quantitation of the ATP present, an indicator of metabolically active cells (Crouch et al (1993) J. Immunol. Meth. 160:81-88; U.S. Pat. No. 6,602,677). […]\nThe homogeneous “add-mix-measure” format results in cell lysis and generation of a luminescent signal proportional to the amount of ATP present. […] Viable cells are reflected in relative luminescence units (RLU). […]\nEfficacy of ADC was measured by a cell proliferation assay employing the following protocol ([…] GLO™ Luminescent Cell Viability Assay, Promega Corp. Technical Bulletin TB288; Mendoza et al (2002) Cancer Res. 62:5485-5488): • 1. […]"}, "[2]": {"tested_on": "MMTV-HER2 Fo5 transgenic mammary tumors", "test": "In vivo tumor growth inhibition, MMTV-HER2 Fo5 transgenic mammary tumor allograft", "set-up": "species or system CRL nu/nu mice", "conditions": "FIG. 5", "method": "For example, the in vivo efficacy of an anti-HER2 ADC of the invention can be measured by a high expressing HER2 transgenic explant mouse model (Phillips et al (2008) Cancer Res. 68:9280-90). […] Subjects were treated once with ADC at certain dose levels (mg/kg) and placebo buffer control (Vehicle) and monitored over two weeks or more to measure the time to tumor doubling, log cell kill, and tumor shrinkage.\n(§1) Tumors were established and allowed to grow to 150-200 mm^3 in volume (as measured using calipers) before a single treatment on day 0. Tumor volume was measured using calipers according to the formula: V (mm^3)=0.5A×B^2, where A and B are the long and short diameters, respectively. […] Data collected from each experimental group (10 mice per group) were expressed as mean±SE.\nThe Fo5 mouse mammary tumor model was employed to evaluate the in vivo efficacy of antibody-drug conjugates of the invention after single dose intravenous injections, and as described previously (Phillips G D L, Li G M, Dugger D L, et al. Targeting HER2-Positive Breast Cancer with Trastuzumab-DM1, an Antibody-Cytotoxic Drug Conjugate. (2008) Cancer Res. 68:9280-90), incorporated by reference herein. […]"}, "KPL4 tumor model": {"tested_on": "KPL4 tumor model", "test": "In vivo tumor growth inhibition, KPL4 tumor model", "set-up": "species or system scid beige mice", "conditions": "single IV treatment Day 0 at 3 mg/kg; non specific anti-CD33 controls; FIG. 4", "method": "When tumors reached a mean tumor volume of 100-250 mm3, they were grouped into 9 groups of 8-10 mice each. A single treatment was administered intravenously via the tail vein on Day 0 as follows: (01) Vehicle: Histidine Buffer #8: 20 mM Histidine Acetate, pH 5.5, 240 mM Sucrose, 0.02% PS 20, (02) Thio Hu anti-Her2 7C2 LC K149C-(ethylmaleimide) 0.3 mg/kg 138, (03) Thio Hu anti-Her2 7C2 LC K149C-(ethylmaleimide) 1 mg/kg 138, (04) Thio Hu anti-Her2 7C2 LC K149C-(ethylmaleimide) 3 mg/kg 138, (05) Thio Hu anti-Her2 7C2 LC K149C-(LD-57) 0.3 mg/kg 109, (06) Thio Hu anti-Her2 7C2 LC K149C-(LD-57) 1 mg/kg 109, (07) Thio Hu anti-Her2 7C2 LC K149C-(LD-57) 3 mg/kg 109, (08) Thio Hu Anti-CD33 15G15.3 LC K149C-(ethylmaleimide) 3 mg/kg 139, and (09) Thio Hu anti-CD33 15G15.3 LC K149C-(LD-57) 3 mg/kg 110.\nas §1"}},
  "data": [
    {"molecule": "COc1cccc2c1C(=O)c1c(O)c3c(c(O)c1C2=O)C[C@@](O)(C(=O)CO)C[C@@H]3O[C@H]1C[C@H]2[C@H](O[C@@H]3[C@@H](OC)OCCN32)[C@H](C)O1", "note": "[PNU-159682, 3′-deamino-3″,4′-anhydro-[2″(S)-methoxy-3″(R)-oxy-4″-morpholinyl]doxorubicin]", "values": [
      {"measurement": "efficacy in vivo tumor models", "setting": "tumor models", "result": "effective"},
      {"measurement": "cytotoxicity in vitro relative to nemorubicin and doxorubicin", "setting": "[1]", "result": "remarkably more cytotoxic than nemorubicin and doxorubicin"}
    ]},
    {"molecule": "ADC-110 (conjugate) VH: QVQLVQSGAEVKKPGSSVKVSCKASGGIFSNHAISWVRQAPGQGLEWMGGIIPIFGTANYAQKFQGRVTITADESTSTAFMELSSLRSEDTAVYYCAREWADVFDIWGQGTMVTVSS VL: EIVLTQSPLSLPVTPGEPASISCRSSQSLLHSNGYNYLDWYLQKPGQSPQLLIYLGVNSVSGVPDRFSGSGSGTDFTLKISRVEAEDVGVYYCMQALQTPWTFGQGTKVEIK", "values": [
      {"measurement": "cell-killing activity (in vitro cell viability versus concentration)", "setting": "SK-BR-3 cells", "result": "less activity"},
      {"measurement": "tumor growth inhibition", "setting": "[2]; dosing once IV at 1 mg/kg", "result": "little tumor growth inhibition"},
      {"measurement": "tumor growth inhibition", "setting": "[2]; dosing once IV at 3 mg/kg", "result": "modest tumor growth inhibition"},
      {"measurement": "tumor growth inhibition", "setting": "KPL4 tumor model", "result": "little or no tumor growth inhibition"}
    ]}
  ]
}
